Here are results for two substances from article PMC4148960.

Experiment [1] concerns the target MYC-Grg5 (in COS-7 cells) (UniProt P63002).
Experiment [2] concerns the target GST-fused Grg1 (UniProt Q62440). The experiment in a line: pull-down; GST-Grg1 or GST-Grg5 from lysed BL21 E. coli incubated with S^35-labelled in vitro translated Sox2 proteins; pulled down with Glutathione-sepharose 4B beads; PAGE gel on a phosphorimager.
The target of experiment [3] is GST-fused Grg5 (UniProt P63002). The experiment is described as above.
Sequence of GST-fused Grg5 (P63002 whole entry, the tested form may be a part): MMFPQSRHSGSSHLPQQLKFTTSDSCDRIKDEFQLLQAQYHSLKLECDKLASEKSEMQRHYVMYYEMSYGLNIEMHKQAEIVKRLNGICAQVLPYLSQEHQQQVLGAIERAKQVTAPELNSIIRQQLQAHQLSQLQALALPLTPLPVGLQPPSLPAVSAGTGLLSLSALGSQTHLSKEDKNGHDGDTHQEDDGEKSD

Sequence of radiolabelled Sox2^M203–209 (in vitro translated) (P48432 whole entry): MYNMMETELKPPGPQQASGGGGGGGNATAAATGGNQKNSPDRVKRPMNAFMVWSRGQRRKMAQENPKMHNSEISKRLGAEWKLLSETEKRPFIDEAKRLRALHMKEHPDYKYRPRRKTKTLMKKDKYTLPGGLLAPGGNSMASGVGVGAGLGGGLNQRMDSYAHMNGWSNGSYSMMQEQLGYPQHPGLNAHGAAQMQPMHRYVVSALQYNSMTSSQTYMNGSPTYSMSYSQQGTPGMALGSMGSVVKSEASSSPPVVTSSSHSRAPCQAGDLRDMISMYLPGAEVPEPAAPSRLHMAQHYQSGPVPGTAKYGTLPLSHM
Sequence of MYC-Grg5 (in COS-7 cells) (P63002 whole entry, the tested form may be a part): as the sequence (P63002 whole entry, the tested form may be a part) above
Sequence of GST-fused Grg1 (Q62440 whole entry, the tested form may be a part): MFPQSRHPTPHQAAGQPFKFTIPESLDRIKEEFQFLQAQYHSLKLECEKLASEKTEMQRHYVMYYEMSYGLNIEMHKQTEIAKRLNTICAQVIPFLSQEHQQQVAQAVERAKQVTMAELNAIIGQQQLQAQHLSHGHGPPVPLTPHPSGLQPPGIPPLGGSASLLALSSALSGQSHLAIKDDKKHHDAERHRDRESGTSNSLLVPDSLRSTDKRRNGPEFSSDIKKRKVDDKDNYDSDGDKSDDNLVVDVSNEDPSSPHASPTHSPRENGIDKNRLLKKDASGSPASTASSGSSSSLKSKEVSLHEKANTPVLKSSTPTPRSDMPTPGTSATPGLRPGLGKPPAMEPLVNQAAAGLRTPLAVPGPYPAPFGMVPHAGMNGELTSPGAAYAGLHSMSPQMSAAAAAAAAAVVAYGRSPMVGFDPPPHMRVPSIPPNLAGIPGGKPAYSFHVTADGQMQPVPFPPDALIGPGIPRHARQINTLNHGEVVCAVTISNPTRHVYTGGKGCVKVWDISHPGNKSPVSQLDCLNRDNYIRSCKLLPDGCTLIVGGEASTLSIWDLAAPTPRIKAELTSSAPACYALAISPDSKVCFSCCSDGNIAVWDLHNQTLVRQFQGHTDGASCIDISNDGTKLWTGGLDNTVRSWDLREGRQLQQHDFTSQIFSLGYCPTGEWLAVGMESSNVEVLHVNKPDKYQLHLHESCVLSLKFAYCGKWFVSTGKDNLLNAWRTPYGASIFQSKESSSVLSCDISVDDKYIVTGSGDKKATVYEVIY
Sequence of Sox2^M203–209 mutant (transfected, COS-7 cells) (P48432 whole entry, change not shown): as the sequence (P48432 whole entry) above

For “Sox2^M203–209 mutant (transfected, COS-7 cells) (from UniProt P48432 1-319) (natural protein)”, the subcellular translocation assay: proportion of co-transfected COS-7 cells with altered distribution of MYC-Grg5, mutant against WT Sox2 in experiment [1] was found to be 50%.
As for “radiolabelled Sox2^M203–209 (in vitro translated) (from UniProt P48432 1-319) (natural protein)”, the fold decrease in the amount pulled down against WT Sox2 in experiment [2] and in experiment [3] was 4 fold each time.
